# Reference: US20240132603A1 (HARBOUR BIOMED US, published 2024)
# Legend:
# [1] = biological target: T1, human CCR8 (human, UniProt P51685 1-355); assay: FACS, CHO-K1-hCCR8 cells
# T1 construct: whole, on cells; construct used for the overexpressing cell lines is not described; also called hCCR8
# Experimental: (§1) Cells overexpressing human CCR8 were digested with pancreatin, counted and resuspended to a cell density of 1E6 cells/mL. The cell suspension was added to a 96-well V-bottom plate at 100 μL/well and centrifuged at 300 g for 5 min, and the supernatant was discarded. The anti-CCR8 antibodies provided herein was used as a primary antibody and diluted in a 5-fold gradient with an FACS buffer (DPBS containing 2% FBS) from 200 nM. The diluted primary antibody was added at 100 μL/well to resuspend the cells, and the mixture was incubated at 4° C. for 1 h. The plate was washed twice with DPBS and centrifuged at 300×g for 5 min, and the supernatant was discarded. The secondary antibody diluted in a 1:1000 ratio with an FACS buffer was added at 100 μL/well to suspend the cells, and the mixture was incubated at 4° C. for 40 min. The plate was washed twice with DPBS and centrifuged at 300×g for 5 min, and the supernatant was discarded. DPBS was added at 200 μL/well to suspend the cells, and the mixture was loaded on an FACS machine for analysis.
# [2] = biological target: T2, cynomolgus monkey CCR8 (cynomolgus monkey, UniProt G7NYJ2 1-355); assay: FACS, CHO-K1-CynoCCR8 cells
# T2 construct: whole, on cells; also called CynoCCR8
# T2 sequence (G7NYJ2 entry or part of it): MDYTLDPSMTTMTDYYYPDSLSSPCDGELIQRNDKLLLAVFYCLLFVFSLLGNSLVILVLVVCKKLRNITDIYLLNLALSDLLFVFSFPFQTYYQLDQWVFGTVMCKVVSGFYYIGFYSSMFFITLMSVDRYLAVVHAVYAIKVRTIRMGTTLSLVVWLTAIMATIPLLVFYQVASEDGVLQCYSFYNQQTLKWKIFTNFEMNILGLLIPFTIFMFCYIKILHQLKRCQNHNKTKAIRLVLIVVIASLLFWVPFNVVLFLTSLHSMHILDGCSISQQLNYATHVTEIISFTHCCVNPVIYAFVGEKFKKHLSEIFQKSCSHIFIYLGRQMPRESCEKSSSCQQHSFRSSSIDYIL
# Experimental: as §1, with “cynomolgus monkey CCR8, CHO-K1-CynoCCR8,” for “human CCR8”
# T1 sequence (P51685 whole entry): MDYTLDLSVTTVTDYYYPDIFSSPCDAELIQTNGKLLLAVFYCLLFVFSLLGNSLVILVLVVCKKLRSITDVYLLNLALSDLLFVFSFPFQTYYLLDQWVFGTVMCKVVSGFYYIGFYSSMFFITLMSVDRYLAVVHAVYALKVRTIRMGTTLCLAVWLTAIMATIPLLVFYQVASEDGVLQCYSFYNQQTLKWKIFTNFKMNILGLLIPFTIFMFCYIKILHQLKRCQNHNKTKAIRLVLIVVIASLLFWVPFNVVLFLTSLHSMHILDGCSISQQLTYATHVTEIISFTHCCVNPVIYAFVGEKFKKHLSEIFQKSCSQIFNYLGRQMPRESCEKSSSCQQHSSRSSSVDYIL
EC50 [1] [nM],EC50 [2] [nM],Binder
0.91,4.97,"PR004333 (antibody, human IgG1, kappa, V domains shown, heavy-chain semi-humanized variant of PR004128, IgG1 with DE mutation) VH: EVQLVESGGGLVQPGGSLRLSCAASGFTFNTYAMNWVRQAPGKGLEWVSRIRSKSNNYATYYADSVKDRFTISRDDSKSTLYLQMNSLRAEDTAVYYCVRGKENGNYYAMDFWGQGTTVTVSS VL: DIVMTQAAPSVPVTPGESVSISCRSSKSLLHSNGKIYLYWFLQRPGQSPQLLIYRMSNLASGVPDRFSGSGSGTAFTLRISRVEAEDVGVYYCMQHLEYPLTFGAGTKLEIKR"
0.76,5.47,"PR004337 (antibody, human IgG1, kappa, V domains shown, heavy-chain semi-humanized variant of PR004128, IgG1 with DE mutation) VH: EVQLVESGGGLVQPGGSLKLSCAASGFTFNTNAMNWVRQASGKGLEWVGRIRSKSNNYATYYADSVKDRFTISRDDSKSTLYLQMNSLKTEDTAVYYCVRGKENGNYYAMDFWGQGTTVTVSS VL: DIVMTQAAPSVPVTPGESVSISCRSSKSLLHSNGKIYLYWFLQRPGQSPQLLIYRMSNLASGVPDRFSGSGSGTAFTLRISRVEAEDVGVYYCMQHLEYPLTFGAGTKLEIKR"
1.06,5.35,"PR004340 (antibody, human IgG1, kappa, V domains shown, light-chain semi-humanized variant of PR004128, IgG1 with DE mutation) VH: EVQLVESGGGLVQPKGSLKLSCAASGFTFNTYAMNWVRQAPGKGLEWVARIRSKSNNYATYYADSVKDRFTISRDDSQSMLYLQMNNLKTEDTAMYYCVRGKENGNYYAMDFWGQGTSVTVSA VL: DIVMTQSPLSLPVTPGEPASISCRSSKSLLHSNGNTYLYWFLQKPGQSPQLLIYRMSNLASGVPDRFSGSGSGTDFTLKISRVEAEDVGVYYCMQHLEYPLTFGQGTKLEIKR"
0.73,2.75,"PR004332 (antibody, human IgG1, kappa, V domains shown, heavy-chain semi-humanized variant of PR004128, IgG1 with DE mutation) VH: EVQLVESGGGLVKPGGSLRLSCAASGFTFNTYAMNWVRQAPGKGLEWVGRIRSKSNNYATYYADSVKDRFTISRDDSKSTLYLQMNSLKTEDTAVYYCVRGKENGNYYAMDYWGQGTTVTVSS VL: DIVMTQAAPSVPVTPGESVSISCRSSKSLLHSNGKIYLYWFLQRPGQSPQLLIYRMSNLASGVPDRFSGSGSGTAFTLRISRVEAEDVGVYYCMQHLEYPLTFGAGTKLEIKR"
1.03,6.99,"PR004331 (antibody, human IgG1, kappa, V domains shown, heavy-chain semi-humanized variant of PR004128, IgG1 with DE mutation) VH: EVQLVESGGGLVKPGGSLRLSCAASGFTFNTNAMNWVRQAPGKGLEWVGRIRSKSNNYATYYADSVKDRFTISRDDSKSTLYLQMNSLKTEDTAVYYCVRGKENGNYYAMDFWGQGTTVTVSS VL: DIVMTQAAPSVPVTPGESVSISCRSSKSLLHSNGKIYLYWFLQRPGQSPQLLIYRMSNLASGVPDRFSGSGSGTAFTLRISRVEAEDVGVYYCMQHLEYPLTFGAGTKLEIKR"
0.72,4.21,"PR004338 (antibody, human IgG1, kappa, V domains shown, heavy-chain semi-humanized variant of PR004128, IgG1 with DE mutation) VH: EVQLVESGGGLVQPGGSLKLSCAASGFTFNTYAMNWVRQASGKGLEWVGRIRSKSNNYATYYADSVKDRFTISRDDSKSTLYLQMNSLKTEDTAVYYCVRGKENGNYYAMDYWGQGTTVTVSS VL: DIVMTQAAPSVPVTPGESVSISCRSSKSLLHSNGKIYLYWFLQRPGQSPQLLIYRMSNLASGVPDRFSGSGSGTAFTLRISRVEAEDVGVYYCMQHLEYPLTFGAGTKLEIKR"
0.79,3.33,"PR004336 (antibody, human IgG1, kappa, V domains shown, heavy-chain semi-humanized variant of PR004128, IgG1 with DE mutation) VH: EVQLVESGGGLVQPGGSLKLSCAASGFTFNTYAMNWVRQASGKGLEWVGRIRSKSNNYATYYADSVKDRFTISRDDSKSTLYLQMNSLKTEDTAVYYCVRGKENGNYYAMDFWGQGTTVTVSS VL: DIVMTQAAPSVPVTPGESVSISCRSSKSLLHSNGKIYLYWFLQRPGQSPQLLIYRMSNLASGVPDRFSGSGSGTAFTLRISRVEAEDVGVYYCMQHLEYPLTFGAGTKLEIKR"
0.95,9.58,"PR004339 (antibody, human IgG1, kappa, V domains shown, light-chain semi-humanized variant of PR004128, IgG1 with DE mutation) VH: EVQLVESGGGLVQPKGSLKLSCAASGFTFNTYAMNWVRQAPGKGLEWVARIRSKSNNYATYYADSVKDRFTISRDDSQSMLYLQMNNLKTEDTAMYYCVRGKENGNYYAMDFWGQGTSVTVSA VL: DIVMTQSPLSLPVTPGEPASISCRSSKSLLHSNGKIYLYWFLQKPGQSPQLLIYRMSNLASGVPDRFSGSGSGTDFTLKISRVEAEDVGVYYCMQHLEYPLTFGQGTKLEIKR"

# The remaining lines, values behind:
Binder,EC50 [1] [nM],EC50 [2] [nM]
"PR004324 (antibody, human IgG1, kappa, V domains shown, PTM variant of PR004128, IgG1 with DE mutation) VH: EVQLVESGGGLVQPKGSLKLSCAASGFTFNTYAMNWVRQAPGKGLEWVARIRSKSNNYATYYADSVKDRFTISRDDSQSMLYLQMNNLKTEDTAMYYCVRGKENGNYYAMDFWGQGTSVTVSA VL: DIVMTQAAPSVPVTPGESVSISCRSSKSLLHSNAKIYLYWFLQRPGQSPQLLIYRMSNLASGVPDRFSGSGSGTAFTLRISRVEAEDVGVYYCMQHLEYPLTFGAGTKLEIKR",0.67,2.3
"PR004330 (antibody, human IgG1, kappa, V domains shown, heavy-chain semi-humanized variant of PR004128, IgG1 with DE mutation) VH: EVQLVESGGGLVKPGGSLRLSCAASGFTFNTYAMNWVRQAPGKGLEWVGRIRSKSNNYATYYADSVKDRFTISRDDSKSTLYLQMNSLKTEDTAVYYCVRGKENGNYYAMDFWGQGTTVTVSS VL: DIVMTQAAPSVPVTPGESVSISCRSSKSLLHSNGKIYLYWFLQRPGQSPQLLIYRMSNLASGVPDRFSGSGSGTAFTLRISRVEAEDVGVYYCMQHLEYPLTFGAGTKLEIKR",0.85,3.96
"PR004326 (antibody, human IgG1, kappa, V domains shown, PTM variant of PR004128, IgG1 with DE mutation) VH: EVQLVESGGGLVQPKGSLKLSCAASGFTFNTYAMNWVRQAPGKGLEWVARIRSKSNNYATYYADSVKDRFTISRDDSQSMLYLQMNNLKTEDTAMYYCVRGKENANYYAMDFWGQGTSVTVSA VL: DIVMTQAAPSVPVTPGESVSISCRSSKSLLHSNGKIYLYWFLQRPGQSPQLLIYRMSNLASGVPDRFSGSGSGTAFTLRISRVEAEDVGVYYCMQHLEYPLTFGAGTKLEIKR",0.37,0.75
"PR004327 (antibody, human IgG1, kappa, V domains shown, PTM variant of PR004128, IgG1 with DE mutation) VH: EVQLVESGGGLVQPKGSLKLSCAASGFTFQTYAMNWVRQAPGKGLEWVARIRSKSNNYATYYADSVKDRFTISRDDSQSMLYLQMNNLKTEDTAMYYCVRGKENGNYYAMDFWGQGTSVTVSA VL: DIVMTQAAPSVPVTPGESVSISCRSSKSLLHSNGKIYLYWFLQRPGQSPQLLIYRMSNLASGVPDRFSGSGSGTAFTLRISRVEAEDVGVYYCMQHLEYPLTFGAGTKLEIKR",1.08,13.4
"PR004329 (antibody, human IgG1, kappa, V domains shown, PTM variant of PR004128, IgG1 with DE mutation) VH: EVQLVESGGGLVQPKGSLKLSCAASGFTFNTYAMNWVRQAPGKGLEWVARIRSKSNNYATYYADSVKDRFTISRDDSQSMLYLQMNNLKTEDTAMYYCVRGKEQGNYYAMDFWGQGTSVTVSA VL: DIVMTQAAPSVPVTPGESVSISCRSSKSLLHSNGKIYLYWFLQRPGQSPQLLIYRMSNLASGVPDRFSGSGSGTAFTLRISRVEAEDVGVYYCMQHLEYPLTFGAGTKLEIKR",0.17,0.41
"PR004325 (antibody, human IgG1, kappa, V domains shown, PTM variant of PR004128, IgG1 with DE mutation) VH: EVQLVESGGGLVQPKGSLKLSCAASGFTFNTYAMNWVRQAPGKGLEWVARIRSKSNNYATYYADSVKDRFTISRDDSQSMLYLQMNNLKTEDTAMYYCVRGKENGNYYAMDFWGQGTSVTVSA VL: DIVMTQAAPSVPVTPGESVSISCRSSKSLLHSQGKIYLYWFLQRPGQSPQLLIYRMSNLASGVPDRFSGSGSGTAFTLRISRVEAEDVGVYYCMQHLEYPLTFGAGTKLEIKR",1.31,3.89
"PR004328 (antibody, human IgG1, kappa, V domains shown, PTM variant of PR004128, IgG1 with DE mutation) VH: EVQLVESGGGLVQPKGSLKLSCAASGFTFSTYAMNWVRQAPGKGLEWVARIRSKSNNYATYYADSVKDRFTISRDDSQSMLYLQMNNLKTEDTAMYYCVRGKENGNYYAMDFWGQGTSVTVSA VL: DIVMTQAAPSVPVTPGESVSISCRSSKSLLHSNGKIYLYWFLQRPGQSPQLLIYRMSNLASGVPDRFSGSGSGTAFTLRISRVEAEDVGVYYCMQHLEYPLTFGAGTKLEIKR",1,6.05
